The test system of data set [1] is pre-pro-insulin glargine.
Data set [2] addresses pre-pro-insulin (human insulin).
Data set [3] addresses pre-pro-insulin glargine. This is another data set of the same source.
In data set [4] the target is pre-pro-insulin glulisine.

Changes are numbered by the printed parent chain.

Consider Serine190Alanine human trypsin variant, for which the “by-product formation in pre-pro-insulin processing (HPLC)” value in the data set with pre-pro-insulin glargine [1] was “High amounts of by-products, mainly B30-des-Thr- and A0-components, are formed during reaction”.

B1: Ser172Ala porcine trypsin (protein)
chain: IVGGYTCAANSIPYQVSLNSGSHFCGGSLINSQWVVSAAHCYKSRIQVRLGEHNIDVLEGNEQFINAAKIITHPNFNGNTLDNDIMLIKLSSPATLNSRVATVSLPRSCAAAGTECLISGWGNTKSSGSSYPSLLQCLKAPVLSDSSCKSSYPGQITGNMICVGFLEGGKDACQGDSGGPVVCNGQLQGIVSWGYGCAQKNKPGVYTKVCNYVNWIQQTIAAN
In data set [2], B1 returned a Yield (external standard) [%] of 96.5%, a des-Thr [area %] of 3.3 area %, a Σ A0 compounds [area %] of 4.1 area % and a Σ Arg-Ins [area %] of 82.5 area %. The molecule also gave a Σ pre-Arg-Ins [area %] in data set [2] of 0.9 area %. In the data set with pre-pro-insulin glargine [3], this molecule returned an Insulin glargine [area %] of 55.5 area %, a Yield (external standard) [%] of 62.9%, a des-Thr [area %] of 2.6 area % and a pre-Insulin glargine [area %] of 0.4 area %. In the data set with pre-pro-insulin glargine [3], this molecule yielded a Σ A0 compounds [area %] of 5.1 area %. Besides, in data set [4], the A0-Arg-insulin glulisine [area %] was 1.2 area %, the Arg-insulin-glulisine [area %] was 39.2 area % and the Yield (external standard) [%] was found to be 100%.

B2: native, recombinant porcine trypsin (wildtype porcine pancreatic trypsin isoform I) (protein)
chain: B1 chain with A172S
Regarding B2, in data set [2], the Yield (external standard) [%] was found to be 84.2%, the des-Thr [area %] is 7.2 area %, the Σ A0 compounds [area %] was found to be 10.7 area % and the Σ Arg-Ins [area %] amounted to 68.8 area %. In data set [2], the Σ pre-Arg-Ins [area %] stood at 1.4 area %. In the data set with pre-pro-insulin glargine [3], the Insulin glargine [area %] stood at 51.1 area %, the Yield (external standard) [%] was determined as 58.1%, the des-Thr [area %] was 5.6 area % and the pre-Insulin glargine [area %] came out at 0.5 area %. Further, the Σ A0 compounds [area %] with pre-pro-insulin glargine [3] came out at 10.9 area %. For the same molecule, in data set [4], the A0-Arg-insulin glulisine [area %] stood at 4.7 area %, the Arg-insulin-glulisine [area %] turned out to be 35.8 area % and the Yield (external standard) [%] was 91.6%.

The record behind these values is US20100196953.
